Here are results for 3 molecules from article PMC10716780, “The multistep oxidation of cholesterol to pregnenolone by human cytochrome P450 11A1 is highly processive” (The Journal of Biological Chemistry, 2023).

Data set [1] addresses T1, human P450 11A1 (Homo sapiens, UniProt P05108).
T1 sequence (P05108 41-521 limits assumed): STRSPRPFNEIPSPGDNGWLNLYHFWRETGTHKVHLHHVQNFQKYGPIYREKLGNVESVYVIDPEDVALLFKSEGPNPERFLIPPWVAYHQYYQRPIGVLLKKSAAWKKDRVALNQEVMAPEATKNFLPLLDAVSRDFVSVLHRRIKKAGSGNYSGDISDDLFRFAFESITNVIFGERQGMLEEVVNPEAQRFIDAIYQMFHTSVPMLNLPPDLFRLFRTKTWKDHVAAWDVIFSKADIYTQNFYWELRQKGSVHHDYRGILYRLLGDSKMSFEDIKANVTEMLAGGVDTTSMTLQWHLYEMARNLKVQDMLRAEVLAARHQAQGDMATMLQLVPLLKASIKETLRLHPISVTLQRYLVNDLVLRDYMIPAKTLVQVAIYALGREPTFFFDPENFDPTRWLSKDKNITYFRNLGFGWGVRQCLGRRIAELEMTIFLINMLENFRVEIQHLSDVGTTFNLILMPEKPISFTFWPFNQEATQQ
T1 sequence (P00257 59-186 partner): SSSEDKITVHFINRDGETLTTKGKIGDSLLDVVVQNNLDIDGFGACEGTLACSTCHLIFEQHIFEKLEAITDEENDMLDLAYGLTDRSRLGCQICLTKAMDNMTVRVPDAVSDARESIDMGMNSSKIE
The data set can be described thus: Steady-state kinetic assay with [1,2-3H]-cholesterol (radio-HPLC). Format: biochemical. Details: M A S T R S P R P F N E I P S P G D N; Met-Ala (N-terminal start residues in place of the transit peptide and Ile40) (N); made in house; host or cells: E. coli (P450 11A1 in C41(DE3); Adx and AdR in E. coli). As to conditions: ^3H-cholesterol substrate, triplicate. On the procedure: Samples (held at 4 °C) were injected (50 μl) using a Agilent 1100 Series HPLC system on a NovaPak (Waters) octadecylsilane (C18) 3.9 mm × 100 mm (4 μm) column (held at 25 °C) with a flow rate of 1.0 ml min^−1 using a gradient mobile phase of (A) H2O and (B) CH3CN as follows (all in % B, v/v): 0 min, 70%; 10 min, 100%; 35.5 min, 100%; 37 min, 30%; and 40 min, 70%). The flow rate was increased to 1.5 ml min^−1 (from the 10 min to 10.5 min interval) to decrease the retention of cholesterol and was later returned to 1.0 ml min^−1 (from the 35 min to 35.5 min interval) to prepare for the next injection. The column eluate was mixed (1:2, v/v) with FlowLogic U scintillation cocktail (LabLogic) and radioactivity (^3H) was detected using a β-RAM Model 5 radioflow detector (IN/US, LabLogic). Analytes were quantitated on the basis of their ^3H peak areas relative to the summed radioactivity of the four compounds of interest.
Figure S13. Steady-state kinetic assay of P450 11A1 with [1,2-^3H]-cholesterol. The enzyme reaction was performed in triplicate as described for the steady-state LC-MS assays, but with the use of ^3H-cholesterol (2 mCi mmol^-1) as the substrate. Product (^3H-pregnenolone) was detected by radio-HPLC as described (Experimental Methods). The highest rate measured was 6.7 ± 0.4 nmol product min^-1 (nmol P450)^-1.

For data set [2], the target named is T2, human cytochrome P450 11A1 (human, UniProt P05108 40-521).
T2 construct: cytochrome P450 11A1, human, recombinant, codon-optimized insert in pET23C(+); In one titration it was added as a preformed 1:1 complex with cholesterol; also called CYP11A1; P450scc; source: E. coli C41(DE3) with GroES/GroEL, purified (CHAPS solubilisation, Ni-NTA, dialysis)
T2 sequence (looked up): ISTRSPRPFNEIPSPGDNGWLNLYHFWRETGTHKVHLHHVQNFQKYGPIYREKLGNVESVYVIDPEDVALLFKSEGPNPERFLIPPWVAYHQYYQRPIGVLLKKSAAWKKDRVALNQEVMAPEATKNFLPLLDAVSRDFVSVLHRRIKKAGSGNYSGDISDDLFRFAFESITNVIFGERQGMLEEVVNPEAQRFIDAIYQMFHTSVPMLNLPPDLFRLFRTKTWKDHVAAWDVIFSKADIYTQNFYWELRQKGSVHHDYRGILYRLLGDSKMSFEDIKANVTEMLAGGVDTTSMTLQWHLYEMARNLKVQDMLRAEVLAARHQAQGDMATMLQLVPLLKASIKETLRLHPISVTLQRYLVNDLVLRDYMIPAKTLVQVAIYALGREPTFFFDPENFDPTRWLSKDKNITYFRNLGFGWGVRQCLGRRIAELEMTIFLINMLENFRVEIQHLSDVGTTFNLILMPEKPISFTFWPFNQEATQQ
Kind of data set: other fluorescence titration; preformed 1:1 complex of P450 11A1 and cholesterol titrated into Alexa 488-Adx (50 nM) in 100 mM potassium phosphate pH 7.4; quenching of fluorescence (excitation 493 nm, emission 500-600 nm); quadratic fit; with cholesterol (equimolar to P450). To be noted: both partners purified.

The target of data set [3] is T2, human cytochrome P450 11A1. The data set can be described thus: other fluorescence titration; P450 11A1 (0-0.4 uM) titrated into Alexa 488-Adx (50 nM) in 100 mM potassium phosphate pH 7.4; quenching of fluorescence (excitation 493 nm, emission 500-600 nm); quadratic fit; without cholesterol. As to conditions: both partners purified.
Data set [4] has as its system human P450 11A1. Details: method as in PMID 33271253. As to conditions: surface plasmon resonance, human ref 46; read-out: Kd of P450 11A1-Adx complex, without sterol; cited from earlier work. Background: Surface plasmon resonance follows binding to a sensor surface in real time, without labels.
In data set [5] the test system is bovine P450 11A1. Further details: method as in PMID 15181009. As to conditions: surface plasmon resonance, bovine ref 47; read-out: Kd of P450 11A1-Adx complex, without sterol; cited from earlier work.

On to `[3H]C1C([3H])[C@@]2(C)C(=CC[C@H]3[C@@H]4CC[C@H]([C@H](C)CCCC(C)C)[C@@]4(C)CC[C@@H]32)C[C@H]1O` (some centres unmarked) [[1,2-^3H]-cholesterol, [1,2-^3H]-Cholesterol], for which the highest rate measured in data set [1] is reported as 6.7 ± 0.4 nmol product min^-1 (nmol P450)^-1.

B1: Alexa Fluor 488-labeled adrenodoxin (natural protein, bovine, UniProt P00257 59-186, looked up)
chain: T1 sequence (P00257 59-186 partner)
modifications: Alexa Fluor 488 label (site not stated)
notes: also called Alexa 488-Adx; Adx
In the case of B1, the equilibrium dissociation constant (Kd) (usually the constant that tells how readily two partners part at equilibrium) in data set [2] came out at 8.2 nM; in data set [3] it was 38 nM.

B2: Adx: adrenodoxin, soluble iron-sulfur electron donor protein (recombinant bovine); used fluorescently labeled as Alexa 488-Adx (protein)
chain: T1 sequence (P00257 59-186 partner)
modifications: Alexa Fluor 488 label (site not stated)
notes: adrenodoxin, soluble iron-sulfur electron donor protein (recombinant bovine); used fluorescently labeled as Alexa 488-Adx
For the molecule B2, the dissociation constant (Kd) in data set [4] was 24 nM; in data set [5] it was 13.4 nM.
